# IntAct's records for PubMed 22634751
# B1: Cyclin-dependent kinase inhibitor 1C (Homo sapiens), P49918 (parent)
# chain: MSDASLRSTSTMERLVARGTFPVLVRTSACRSLFGPVDHEELSRELQARLAELNAEDQNRWDYDFQQDMPLRGPGRLQWTEVDSDSVPAFYRETVQVGRCRLLLAPRPVAVAVAVSPPLEPAAESLDGLEEAPEQLPSVPVPAPASTPPPVPVLAPAPAPAPAPVAAPVAAPVAVAVLAPAPAPAPAPAPAPAPVAAPAPAPAPAPAPAPAPAPAPDAAPQESAEQGANQGQRGQEPLADQLHSGISGRPAAGTAAASANGAAIKKLSGPLISDFFAKRKRSAPEKSSGDVPAPCPSPSAAPGVGSVEQTPRKRLR
# Variants of: B1
# Conditions: with pcna_human PCNA
row,Variant,effect of a mutation on the interaction
1,MSDASLRSTSTMERLVARGTFPVLVRTSACRSLFGPVDHEELSRELQARLAELNAEDQNRWDYDFQQDMPLRGPGRLQWTEVDSDSVPAFYRETVQVGRCRLLLAPRPVAVAVAVSPPLEPAAESLDGLEEAPEQLPSVPVPAPASTPPPVPVLAPAPAPAPAPVAAPVAAPVAVAVLAPAPAPAPAPAPAPAPVAAPAPAPAPAPAPAPAPAPAPDAAPQESAEQGANQGQRGQEPLADQLHSGISGRPAAGTAAASANGAAIKKLSGPLISDFVAKRKRSAPEKSSGDVPAPCPSPSAAPGVGSVEQTPRKRLR [F276V],disrupting interaction
2,MSDASLRSTSTMERLVARGTFPVLVRTSACRSLFGPVDHEELSRELQARLAELNAEDQNRWDYDFQQDMPLRGPGRLQWTEVDSDSVPAFYRETVQVGRCRLLLAPRPVAVAVAVSPPLEPAAESLDGLEEAPEQLPSVPVPAPASTPPPVPVLAPAPAPAPAPVAAPVAAPVAVAVLAPAPAPAPAPAPAPAPVAAPAPAPAPAPAPAPAPAPAPDAAPQESAEQGANQGQRGQEPLADQLHSGISGRPAAGTAAASANGAAIKKLSGPLISDFFAERKRSAPEKSSGDVPAPCPSPSAAPGVGSVEQTPRKRLR [K278E],disrupting interaction
